Key:
Details in all cases: 5 mM UDP-glucose, phosphate buffer pH 7.5, 30 °C, 10 min
purified protein = substrate: O=c1c(O)c(-c2cc(O)c(O)c(O)c2)oc2cc(O)cc(O)c12; experiment: purified protein
[1] = substrate: O=c1c(O)c(-c2ccc(O)c(O)c2)oc2cc(O)cc(O)c12; experiment: glucosyltransferase assay of recombinant enzyme, HPLC; type: biochemical, Camellia sinensis
[2] = substrate: O=c1c(O)c(-c2ccc(O)cc2)oc2cc(O)cc(O)c12; experiment: as above; type: biochemical, Camellia sinensis

B1: CsUGT72AM1 (Camellia sinensis) (protein)
chain: MDSSNSKPHVALLSSPGIGHLIPVLELRKRLVANHGFHVTVFSVTTTTAPPPKPKTATTTTTLDLVDIFELHVDISGLVNPNAPFVERVGVTMRESLPILRQAISGMDPRPTTLVVDIFGTDAMKIADEFDMSKYVFITTSAWVFAFCVFVPTLDEEVEGEYVDLQEPVKIPGCNPVRVEDLVDPMLDRRSQQYFEFLRTCKGYLSFDGVLVNTWEDLERPTLKAFRENGLLKQVLKAPIYPIGPLVKRVGSSGSRSELLEWLDLQPCQSVLYVSFGSAGTVSAKQITELAWGLELSQQRFIWVLRPPMEKGGPHDLNDCDDVANYLPDGFLSRTHKLGLVVPTWAPQEEILGHRSVGGFLSHGGWNSSLESILSGVPMIMWPLYAEQKMNAAMVVEELEVGVRVVQLSEVVEREEIAKFVRMVIEGREGKAMRTRVKELQCSGERALIENGSSYESMCELARDFEMKLKY
notes: cDNA in pMAL-c2X (MBP fusion), expressed in E. coli Novablue (DE3), purified
- Km (purified protein): 113.15 µM
- Km [1]: 94.99 µM
- Km [2]: 71.81 µM
